# Measurements taken from patent publication US20240016923A1 (UNIVERSITY OF MARYLAND COLLEGE PARK, published 2024).
# Ends that are not written are not given here.
# T1: CD81 large extracellular loop (CD81-LEL) (UniProt P60033 113-201)
# T1 construct: domain: large extracellular loop (LEL); also called CD81 receptor
# T1 sequence (looked up): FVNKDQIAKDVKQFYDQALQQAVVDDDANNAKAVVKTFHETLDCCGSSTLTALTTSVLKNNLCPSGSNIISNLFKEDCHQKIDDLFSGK
# B1: secreted E1E2 with c-Fos/c-Jun leucine zipper scaffold (sE1E2.LZ) (other)
# chain 1: YQVRNSSGLYHVTNDCPNSSIVYEAADAILHTPGCVPCVREGNASRCWVAVTPTVATRDGKLPTTQLRRHIDLLVGSATLCSALYVGDLCGSVFLVGQLFTFSPRRHWTTQDCNCSIYPGHITGHRMAWDMMMNWSPTAALVVAQLLRIPQAIMDMIAPGGRIARLEEKVKTLKAQNSELASTANMLREQVAQLKQKVMNYRRRRRR
# chain 2: ETHVTGGSAGRTTAGLVGLLTPGAKQNIQLINTNGSWHINSTALNCNESLNTGWLAGLFYQHKFNSSGCPERLASCRRLTDFAQGWGPISYANGSGLDERPYCWHYPPRPCGIVPAKSVCGPVYCFTPSPVVVGTTDRSGAPTYSWGANDTDVFVLNNTRPPLGNWFGCTWMNSTGFTKVCGAPPCVIGGVGNNTLLCPTDCFRKHPEATYSRCGSGPWITPRCMVDYPYRLWHYPCTINYTIFKVRMYVGGVEHRLEAACNWTRGERCDLEDRDRSELSPLLLSTTQWQVLPCSFTTLPALSTGLIHLHQNIVDVQYLYGVGSSIASWAIPGGLTDTLQAETDQLEDKKSALQTEIANLLKEKEKLEFILAAYHHHHHH
# notes: It is written here as the two chains expected after furin cleavage
# B2: HC84.24 (antibody, V domains shown)
# VH: QVQLVQSGAEVKKPGSSVKVSCKASGGTFSLNSLSWVRQAPGQGLEWMGTIIPIVGIANYAQKFQGRVTITADKSTGTAYMDLSSLSDDTAVYFCARELYSGTGFFRLEALDYWGQGTLVTVSS
# VL: DIQMTQSPATLSLSPGERATLSCRASQSVSSYLAWYQQKPGQAPRLLIYDASNRATGIPARFIAGGSGTDFTLTISSLEPEDFAVYYCQQYGSPQTFGQGTKLEIKR
# Assays:
# [1] = target: T1, CD81 large extracellular loop (CD81-LEL); test: SPR (Biacore T200), antigen amine-coupled on CM5 chip, CD81-LEL injected, single cycle kinetics, 1:1 model
# [2] = target: T1, CD81 large extracellular loop (CD81-LEL); test: SPR (Biacore T200); sE1E2.LZ amine-coupled to a CM5 chip, CD81-LEL injected; 1:1 model
# [3] = target: B1; test: dose-dependent ELISA, antigen captured by GNA lectin
# [4] = target: T2, membrane-bound E1E2 (mbE1E2) (Hepatitis C virus, isolate H77C …, UniProt P27958 192-746); test: as above
# T2 construct: Extracted from Expi293 membranes with detergent and purified; a heterogeneous mix of oligomers
# c-Fos peptide = target: T3, c-Fos peptide (human); test: circular dichroism spectroscopy of mixed peptides
# T3 construct: Synthetic biotinylated peptide
binder,measurement,setting,value
B1,Kd,[1],10.8 nM
same,koff,[2],0.00067 s⁻¹
same,kon,[2],63000 M⁻¹ s⁻¹
B2,Kd,[3],1.3 nM
same,Kd,[4],0.5 nM
"RIARLEEKVKTLKAQNSELASTANMLREQVAQLKQKVMNY (also: biotinylated, position not given here, Synthetic biotinylated peptide) [c-Jun peptide]",binding result,c-Fos peptide,binds
